In one assay the target is IL-1β (Homo sapiens, UniProt P01584). Put plainly: two independent in vitro bioassays of IL-1β biological activity. The class given is cell-based. The conditions noted are these: effect dependent on the peptide sequence. The source says: The programme identified the antisense region LITVLNI in the interleukin 1 type 1 receptor (IL-1R).
The effect is dependent on the peptide sequence.

The target in assay [1] is T1, IL-1 (Homo sapiens, UniProt P01584). Put plainly: Serum Amyloid IL-1 assay. The assay is classed as cell-based.
The target of assay [2] is T1, IL-1. Briefly: direct binding to IL-1 by biosensing techniques.

T1 sequence (P01584 117-269): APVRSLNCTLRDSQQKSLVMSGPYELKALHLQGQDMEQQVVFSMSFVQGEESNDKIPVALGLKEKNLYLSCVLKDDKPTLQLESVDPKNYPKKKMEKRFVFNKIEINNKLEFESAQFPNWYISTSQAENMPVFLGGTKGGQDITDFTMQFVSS
Sequence of IL-1β (P01584 117-269): as above

Regarding “LITVLNI [antisense region in the interleukin 1 type 1 receptor (IL-1R) identified by the programme]”, the “inhibition of the biological activity of IL-1β” value with IL-1β is “shown to inhibit the biological activity of IL-1β”. In addition, the “inhibition of IL-1 activity (same effect) in Serum Amyloid IL-1 assay” value in the assay with IL-1 [1] was “same effect is also seen”. In the assay with IL-1 [2], the “direct binding to IL-1” value is recorded as “shown to bind directly to IL-1”.

The values are drawn from US20030078374A1, “Complementary peptide ligands generated from the human genome” (priority 1999, published 2003).
